The target in data set [1] is Hfq (UniProt P0A6X3). Put plainly: EMSA. Background: In EMSA bound probe runs differently from free probe, usually more slowly.
Data set [2] has as its target Hfq (UniProt P0A6X3). Put plainly: footprinting.

Hfq, sequence (P0A6X3 2-102): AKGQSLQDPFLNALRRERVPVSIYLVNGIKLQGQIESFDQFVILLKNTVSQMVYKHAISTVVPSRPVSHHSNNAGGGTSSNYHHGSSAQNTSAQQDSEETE

For “GGAUGUAAUCCAUUAGUUUUAUAUUUUACCCAUUUAGGGCUGAUUUAUUACUACACACAGCAGUGCAACAUCUGUCAGUACUUCUGGUGCUUCUAUUUUAGAGGCAGCUGUCAGGUGUGCGAUCAAUAAAAAAAGCGGGGUUUCAUCAUGUUUAAUGAAGUCCAUAGUAUUCAUGGUCAUACAUUAUUGUUGAUCACUAAAUCUUCUUUGCAGGCG [RydC + csgD mRNA215 duplex]”, the binding entry with Hfq [1] is “binds”.

On to “GGAUGUAAUCCAUUAGUUUUAUAUUUUACCCAUUUAGGGCUGAUUUAUUACUACACACAGCAGUGCAACAUCUGUCAGUACUUCUGGUGCUUCUAUUUUAGAGGCAGCUGUCAGGUGUGCGAUCAAUAAAAAAAGCGGGGUUUCAUCAUGUUUAAUGAAGUCCAUAGUAUUCAUGGUCAUACAUUAUUGUUGAUCACUAAAUCUUCUUUGCAGGCG [csgD mRNA215]”, for which the binding entry with Hfq [2] and in the data set with Hfq [1] was “binds” each time.

Values taken from article PMC3985669.
